From patent US20210063414A1, “METHODS FOR PREVENTING AND/OR TREATING BONE LOSS CONDITIONS BY MODULATING IRISIN” (Dana-Farber Cancer Institute, Inc., priority 2018, published 2021)

Assays:
Assay in all cases: Crosslinking/co-immunoprecipitation/mass spectrometry (TMT quantitative proteomics) to identify irisin receptors
Assay type in all cases: binding
[1] = target: T1, MLO-Y4 cell surface proteins (Mus musculus, UniProt Q9CYR0); conditions: co-precipitated protein Ssbp1 (SSBP_MOUSE)
T1 construct: endogenous in cells; host or cells: MLO-Y4
T1 sequence (Q9CYR0 17-152): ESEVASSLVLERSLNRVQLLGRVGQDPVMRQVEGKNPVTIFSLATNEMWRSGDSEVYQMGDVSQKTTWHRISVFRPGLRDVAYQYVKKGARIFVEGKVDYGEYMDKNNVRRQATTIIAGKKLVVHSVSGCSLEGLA
Outline: (§1)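 Mouse MLO-Y4 cells were switched to serum-free FreeStyle medium for 4 h, chilled, then exposed to 10 nM His-tagged irisin (or adipsin as control) for 20 min. Cells were crosslinked with 1.5 mM DTSSP (30 min, ice), and bound proteins were pulled down on Ni-NTA and eluted with 250 mM imidazole. Eluates were separated by SDS-PAGE, trypsin-digested in gel, TMT 6-plex labelled and quantified by MS3-based LC-MS/MS on an Orbitrap Fusion Lumos.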

[2] = target: T2, MLO-Y4 cell surface proteins (Mus musculus, UniProt Q9D125); conditions: co-precipitated protein Mrps25 (RT25_MOUSE)
T2 construct: endogenous in cells; host or cells: MLO-Y4
Outline: as §1

[3] = target: T3, MLO-Y4 cell surface proteins (Mus musculus, UniProt Q8JZN5); conditions: co-precipitated protein Acad9 (ACAD9_MOUSE)
T3 construct: endogenous in cells; host or cells: MLO-Y4
T3 sequence (Q8JZN5 42-625): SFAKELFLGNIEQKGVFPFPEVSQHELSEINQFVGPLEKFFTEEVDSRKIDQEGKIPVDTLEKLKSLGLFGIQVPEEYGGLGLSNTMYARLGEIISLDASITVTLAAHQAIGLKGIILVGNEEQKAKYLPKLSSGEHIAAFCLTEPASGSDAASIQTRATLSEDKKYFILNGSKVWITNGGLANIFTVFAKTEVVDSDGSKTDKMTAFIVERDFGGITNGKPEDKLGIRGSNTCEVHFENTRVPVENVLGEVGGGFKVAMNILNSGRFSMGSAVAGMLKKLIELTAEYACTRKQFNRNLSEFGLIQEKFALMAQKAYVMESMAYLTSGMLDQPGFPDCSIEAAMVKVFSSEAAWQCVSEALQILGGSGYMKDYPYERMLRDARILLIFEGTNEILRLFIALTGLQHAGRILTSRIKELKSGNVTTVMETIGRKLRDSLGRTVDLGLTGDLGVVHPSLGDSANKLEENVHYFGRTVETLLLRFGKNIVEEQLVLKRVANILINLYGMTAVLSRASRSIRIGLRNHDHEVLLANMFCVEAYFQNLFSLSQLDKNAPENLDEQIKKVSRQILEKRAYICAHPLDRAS
Outline: as §1

[4] = target: T4, MLO-Y4 cell surface proteins (Mus musculus, UniProt Q6ZQ93); conditions: co-precipitated protein Usp34 (UBP34_MOUSE)
T4 construct: endogenous in cells; host or cells: MLO-Y4
Outline: as §1

[5] = target: T5, MLO-Y4 cell surface proteins (Mus musculus, UniProt Q9JHS4); conditions: co-precipitated protein Clpx (CLPX_MOUSE)
T5 construct: endogenous in cells; host or cells: MLO-Y4
Outline: as §1

T5 sequence (Q9JHS4 57-634): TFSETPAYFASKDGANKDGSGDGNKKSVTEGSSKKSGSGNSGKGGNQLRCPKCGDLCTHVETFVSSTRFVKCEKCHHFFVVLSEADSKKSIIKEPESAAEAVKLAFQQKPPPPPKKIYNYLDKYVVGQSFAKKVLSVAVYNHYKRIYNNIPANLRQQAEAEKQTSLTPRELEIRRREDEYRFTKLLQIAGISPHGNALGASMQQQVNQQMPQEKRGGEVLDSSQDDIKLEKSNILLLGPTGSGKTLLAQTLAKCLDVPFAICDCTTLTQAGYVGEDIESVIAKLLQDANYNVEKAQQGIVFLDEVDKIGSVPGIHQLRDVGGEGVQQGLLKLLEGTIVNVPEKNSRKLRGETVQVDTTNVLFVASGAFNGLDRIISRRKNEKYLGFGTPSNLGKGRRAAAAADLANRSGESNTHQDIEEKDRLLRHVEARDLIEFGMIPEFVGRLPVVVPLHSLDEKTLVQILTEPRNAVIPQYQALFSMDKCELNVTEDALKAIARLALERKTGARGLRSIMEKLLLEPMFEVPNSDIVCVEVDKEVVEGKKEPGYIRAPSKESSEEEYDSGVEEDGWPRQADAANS
T4 sequence (Q6ZQ93 whole entry): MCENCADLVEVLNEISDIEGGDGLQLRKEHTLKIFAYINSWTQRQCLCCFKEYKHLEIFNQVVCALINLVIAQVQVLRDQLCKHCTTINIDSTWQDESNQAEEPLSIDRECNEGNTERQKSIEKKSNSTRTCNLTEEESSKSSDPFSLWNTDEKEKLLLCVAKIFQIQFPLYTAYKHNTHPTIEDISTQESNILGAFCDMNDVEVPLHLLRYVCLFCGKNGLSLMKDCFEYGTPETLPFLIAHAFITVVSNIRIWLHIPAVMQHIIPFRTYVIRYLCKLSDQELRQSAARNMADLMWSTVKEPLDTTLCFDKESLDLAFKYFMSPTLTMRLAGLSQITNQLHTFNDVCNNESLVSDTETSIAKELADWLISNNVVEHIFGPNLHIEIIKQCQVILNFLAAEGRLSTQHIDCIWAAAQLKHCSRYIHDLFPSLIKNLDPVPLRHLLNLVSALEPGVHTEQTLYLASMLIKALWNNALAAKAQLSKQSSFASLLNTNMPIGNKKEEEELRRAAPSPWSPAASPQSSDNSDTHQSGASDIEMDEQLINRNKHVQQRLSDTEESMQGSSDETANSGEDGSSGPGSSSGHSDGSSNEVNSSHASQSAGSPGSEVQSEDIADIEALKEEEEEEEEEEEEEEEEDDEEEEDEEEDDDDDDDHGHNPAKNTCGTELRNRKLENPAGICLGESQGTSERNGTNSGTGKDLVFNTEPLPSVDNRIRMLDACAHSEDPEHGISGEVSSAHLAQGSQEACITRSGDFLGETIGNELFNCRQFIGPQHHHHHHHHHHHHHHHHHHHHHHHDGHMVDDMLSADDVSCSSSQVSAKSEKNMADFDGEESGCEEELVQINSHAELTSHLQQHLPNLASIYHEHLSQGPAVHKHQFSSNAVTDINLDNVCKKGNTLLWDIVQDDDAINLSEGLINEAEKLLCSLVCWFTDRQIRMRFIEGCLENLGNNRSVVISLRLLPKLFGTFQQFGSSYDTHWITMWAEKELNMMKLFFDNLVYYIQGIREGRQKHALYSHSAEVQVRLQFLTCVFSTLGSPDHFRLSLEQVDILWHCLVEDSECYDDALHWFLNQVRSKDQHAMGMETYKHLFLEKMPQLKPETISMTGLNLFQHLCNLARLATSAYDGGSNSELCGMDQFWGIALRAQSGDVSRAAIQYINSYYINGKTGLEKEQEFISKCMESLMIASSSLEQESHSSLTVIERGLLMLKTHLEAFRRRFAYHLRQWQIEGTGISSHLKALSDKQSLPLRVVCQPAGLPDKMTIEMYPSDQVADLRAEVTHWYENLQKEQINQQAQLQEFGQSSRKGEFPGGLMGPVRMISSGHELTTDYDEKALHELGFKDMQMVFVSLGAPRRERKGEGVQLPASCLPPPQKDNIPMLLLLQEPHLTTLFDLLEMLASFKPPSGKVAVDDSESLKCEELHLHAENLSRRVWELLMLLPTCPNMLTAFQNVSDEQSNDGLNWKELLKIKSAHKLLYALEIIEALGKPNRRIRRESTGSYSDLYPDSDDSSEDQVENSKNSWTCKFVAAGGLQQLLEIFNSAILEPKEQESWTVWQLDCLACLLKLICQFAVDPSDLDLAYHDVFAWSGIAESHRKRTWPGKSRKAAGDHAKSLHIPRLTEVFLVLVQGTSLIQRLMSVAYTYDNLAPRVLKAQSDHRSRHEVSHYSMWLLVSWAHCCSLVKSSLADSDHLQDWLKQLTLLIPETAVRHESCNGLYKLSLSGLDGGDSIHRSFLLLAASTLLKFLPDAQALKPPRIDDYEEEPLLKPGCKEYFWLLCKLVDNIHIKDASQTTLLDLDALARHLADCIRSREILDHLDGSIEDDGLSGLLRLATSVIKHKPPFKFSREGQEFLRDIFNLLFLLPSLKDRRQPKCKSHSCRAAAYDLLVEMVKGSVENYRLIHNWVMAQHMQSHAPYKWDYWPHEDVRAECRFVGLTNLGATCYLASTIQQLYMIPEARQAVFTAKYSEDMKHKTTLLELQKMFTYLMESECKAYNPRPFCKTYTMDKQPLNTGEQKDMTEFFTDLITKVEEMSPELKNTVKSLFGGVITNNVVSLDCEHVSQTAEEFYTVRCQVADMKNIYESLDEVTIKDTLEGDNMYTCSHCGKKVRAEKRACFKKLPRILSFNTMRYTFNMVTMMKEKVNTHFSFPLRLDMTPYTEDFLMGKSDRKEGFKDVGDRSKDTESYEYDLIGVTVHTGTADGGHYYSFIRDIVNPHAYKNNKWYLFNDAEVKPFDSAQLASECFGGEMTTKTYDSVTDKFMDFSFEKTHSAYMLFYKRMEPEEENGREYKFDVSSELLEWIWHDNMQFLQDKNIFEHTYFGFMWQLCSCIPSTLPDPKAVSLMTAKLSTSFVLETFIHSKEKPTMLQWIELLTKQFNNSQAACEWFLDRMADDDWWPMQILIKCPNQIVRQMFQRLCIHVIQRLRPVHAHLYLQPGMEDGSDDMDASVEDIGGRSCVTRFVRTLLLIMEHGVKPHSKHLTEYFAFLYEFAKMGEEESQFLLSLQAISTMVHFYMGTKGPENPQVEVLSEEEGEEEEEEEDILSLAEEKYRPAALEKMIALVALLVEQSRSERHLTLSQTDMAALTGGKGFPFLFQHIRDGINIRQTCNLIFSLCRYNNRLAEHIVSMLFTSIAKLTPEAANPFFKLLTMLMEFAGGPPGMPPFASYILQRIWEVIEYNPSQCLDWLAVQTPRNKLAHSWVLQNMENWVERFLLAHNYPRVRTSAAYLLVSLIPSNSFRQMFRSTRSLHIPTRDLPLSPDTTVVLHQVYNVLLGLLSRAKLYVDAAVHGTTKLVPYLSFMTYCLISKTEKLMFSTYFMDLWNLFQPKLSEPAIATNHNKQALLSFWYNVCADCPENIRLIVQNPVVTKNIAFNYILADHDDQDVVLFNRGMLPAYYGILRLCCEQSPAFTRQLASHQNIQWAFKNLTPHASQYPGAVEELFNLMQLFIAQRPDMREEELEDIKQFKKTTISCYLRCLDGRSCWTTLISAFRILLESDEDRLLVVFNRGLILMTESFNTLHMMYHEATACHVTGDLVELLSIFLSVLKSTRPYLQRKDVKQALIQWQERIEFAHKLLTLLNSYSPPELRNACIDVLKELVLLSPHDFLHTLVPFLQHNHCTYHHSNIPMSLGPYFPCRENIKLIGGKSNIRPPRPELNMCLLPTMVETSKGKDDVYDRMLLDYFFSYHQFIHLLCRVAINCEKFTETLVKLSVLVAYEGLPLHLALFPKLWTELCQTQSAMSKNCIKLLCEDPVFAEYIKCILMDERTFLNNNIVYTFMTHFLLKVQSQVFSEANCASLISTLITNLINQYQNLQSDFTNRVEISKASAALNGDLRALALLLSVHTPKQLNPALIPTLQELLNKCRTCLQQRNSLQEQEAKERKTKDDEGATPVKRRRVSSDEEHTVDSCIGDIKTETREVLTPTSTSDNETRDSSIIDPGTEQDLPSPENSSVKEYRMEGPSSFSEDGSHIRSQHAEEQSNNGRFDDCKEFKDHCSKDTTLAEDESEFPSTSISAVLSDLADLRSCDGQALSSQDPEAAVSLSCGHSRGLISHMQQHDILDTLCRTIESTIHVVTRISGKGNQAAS

B1: irisin: secreted cleaved form of FNDC5; recombinant human/mouse irisin with C-terminal his tag produced in HEK293 cells (protein)
chain: DSPSAPVNVTVRHLKANSAVVSWDVLEDEVVIGFAISQQKKDVRMLRFIQEVNTTTRSCALWDLEEDTEYIVHVQAISIQGQSPASEPVLFKTPREAEKMASKNKDEVTMKE
modifications: left off: small tags and cut ends
notes: secreted cleaved form of FNDC5; recombinant human/mouse irisin with C-terminal his tag produced in HEK293 cells
TMT signal-to-noise ratio [1]: 244.754 | irisin/adipsin TMT signal-to-noise ratio [1]: 0.566 | TMT signal-to-noise ratio [2]: 10.7103 | irisin/adipsin TMT signal-to-noise ratio [2]: 0.126 | TMT signal-to-noise ratio [3]: 61.8219 | irisin/adipsin TMT signal-to-noise ratio [3]: 0.486 | TMT signal-to-noise ratio [4]: 98.0506 | irisin/adipsin TMT signal-to-noise ratio [4]: 0.094 | TMT signal-to-noise ratio [5]: 851.066 | irisin/adipsin TMT signal-to-noise ratio [5]: 0.561
